{
  "source": "paper PMC6070508",
  "binders": {"B1": {"name": "8D6 Fab (Fab, V domains shown)", "VH": "QVQLQQSGAELAKPGASVMLSCKASGYTFNGYWMHWVKQRPGQDLEWIGYINPTTGHTEYNQKFKDKATLTADESSNTAYIELSSLTSDDSAVYYCARQEYRHSWFAYWGQGTLVTVSA", "VL": "DIVLTQSPASLAVSLGQRATISCKASQSVDYDGDTYMNWYHQKPGQPPKLLIYAASNLDSGIPARFSGSGSGTDFTLNIHPVEEEDAATYYCQQTNEDPWTFGGGTKLEIK"}},
  "key": {"[1]": {"target": "His-tagged IgE-Fc (human)", "sequence (P01854 other isoform, or with tags, fused parts or gaps)": "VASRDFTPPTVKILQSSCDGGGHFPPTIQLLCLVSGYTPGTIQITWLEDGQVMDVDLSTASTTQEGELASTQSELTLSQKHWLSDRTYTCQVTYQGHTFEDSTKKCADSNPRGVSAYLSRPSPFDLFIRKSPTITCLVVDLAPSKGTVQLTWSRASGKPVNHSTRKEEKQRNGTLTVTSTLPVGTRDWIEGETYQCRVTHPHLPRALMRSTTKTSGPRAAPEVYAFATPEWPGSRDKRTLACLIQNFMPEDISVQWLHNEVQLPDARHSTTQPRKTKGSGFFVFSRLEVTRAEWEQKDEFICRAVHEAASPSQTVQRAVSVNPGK", "test": "SPR; sandwich: about 100 RU of His-tagged IgE-Fc captured on an 8D6 Fab surface, then a second 8D6 Fab injected at 30 uL/min; HBS-P"}, "[2]": {"target": "1:1 8D6 Fab/IgE-Fc complex", "test": "SPR; sandwich: about 100 RU of His-tagged IgE-Fc captured on an 8D6 Fab surface, then a second 8D6 Fab injected at 30 uL/min; HBS-P"}},
  "data": [
    {"binder": "B1", "values": [
      {"measurement": "stoichiometry N", "setting": "[1]", "result": 2},
      {"measurement": "Kd", "setting": "[2]", "result": 60, "unit": "pM"},
      {"measurement": "koff", "setting": "[2]", "result": "6e-05", "unit": "s⁻¹"},
      {"measurement": "kon", "setting": "[2]", "result": "1e+06", "unit": "M⁻¹ s⁻¹"}
    ]}
  ]
}
